Measured values taken from the supplement of paper PMC10126150.
± gives the standard deviation of the averaged measurements.

System: ATP
Test: switch fluorescence ratio, 500 uM ATP over buffer (Cy3 cluster intensity, sum of 5 cycles each) (fold (ratio)); higher = stronger signal-on switching upon ATP binding; sequences stand for … in TCGTCGGCAGCGTCAGATGTGTATAAGAGACAGTTTTTTTTTTTTTTTTTTTTTTTTT…TC
Settings: aptamer strand: ATP DNA aptamer (quencher-CACCTGGGGGAGTATTGCGGAGGAAGG + anchor), 100 nM annealed; ATP concentration: 500 uM
Method in brief: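 After annealing to 100 nM quencher-labelled ATP aptamer, Cy3-labelled switching-strand clusters on a modified Illumina MiSeq flow-cell were imaged in selection buffer. A second image followed after 15 min with 500 uM ATP at 22 °C, and five such buffer/ATP cycles were done, each separated by NaOH stripping and re-annealing. The fluorescence ratio, averaged per switch-domain sequence, is summed target-cycle over summed buffer-cycle Cy3 intensity per cluster, with clusters outside 100-1000 RFU excluded.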
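Further: ATP exposure 15 min at 22 °C before imaging.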

GGACAATGGG and CGTATCGTGA are within error of each other in switch fluorescence ratio: 0.985 ± 0.033 for the first, 1.01 ± 0.041 for the second.

CTGTTAGTTG and AGATCTTCGG are within error of each other in switch fluorescence ratio: 0.993 ± 0.019 for the first, 1.001 ± 0.0076 for the second.

TAATAAAAAA and CGTAGGGGGA are within error of each other in switch fluorescence ratio: 0.9772 ± 0.0069 for the first, 0.984 ± 0.015 for the second.

CTCACGGGGC and TACGTAGGTG are within error of each other in switch fluorescence ratio: 1.16 ± 0.16 for the first, 1.04 ± 0.031 for the second.

TAATGGGTAA and TCCTGTGAAC are within error of each other in switch fluorescence ratio: 1.01 ± 0.065 for the first, 1.04 ± 0.046 for the second.

CGGGGTGGGT and TCCTGTTTTC are within error of each other in switch fluorescence ratio: 0.978 ± 0.028 for the first, 0.987 ± 0.021 for the second.

First: TTGGCATGTC
Second: ATGTGGTATG
The switch fluorescence ratio of the first is higher: 1.06 ± 0.041 for the first, 0.984 ± 0.031 for the second.

CGTGAATTGT and TGATGAATTG are the same in switch fluorescence ratio: 1.044 ± 0.01 for the first, 1.04 ± 0.002 for the second.

CATTTGTTTT and TTTATTCAGG are the same in switch fluorescence ratio: 1.02 ± 0.021 for the first, 1.02 ± 0.032 for the second.

GGCTGGTGTG and GGAATGAAGG are within error of each other in switch fluorescence ratio: 1.02 ± 0.029 for the first, 1 ± 0.0041 for the second.

First: TAAGGTAGGT
Second: TCCATGGGTG
The switch fluorescence ratio of the first is lower: 0.993 ± 0.016 for the first, 1.52 ± 0.033 for the second.

TAAGTTGTTT and GGTACTTCGA are within error of each other in switch fluorescence ratio: 0.996 ± 0.013 for the first, 0.9938 ± 0.0015 for the second.

First: AAGGCGGGGA
Second: TCAGACTCAG
The switch fluorescence ratio of the first is higher: 1.017 ± 0.0051 for the first, 0.992 ± 0.021 for the second.

TGGCCGCGGA and TTAAACTTTT are within error of each other in switch fluorescence ratio: 1.01 ± 0.03 for the first, 1.04 ± 0.031 for the second.

Compared with AATCGCTTTG, GACGGGGAAT is lower in switch fluorescence ratio: 1.014 ± 0.0029 for the first, 0.979 ± 0.01 for the second.

First: TCGTAACTTA
Second: GGTGTAGGGA
The switch fluorescence ratio of the first is higher: 1.03 ± 0.011 for the first, 0.992 ± 0.013 for the second.

TTTGCAATAA and CTTGGGGCTC are within error of each other in switch fluorescence ratio: 2.35 ± 1.7 for the first, 0.9457 ± 0.0082 for the second.

TATTATGAGA and TTTGCATCTT are within error of each other in switch fluorescence ratio: 0.983 ± 0.026 for the first, 0.9984 ± 0.0022 for the second.

TTCGATTGTG and GAGGGCGGCA are within error of each other in switch fluorescence ratio: 0.9867 ± 0.0088 for the first, 1.02 ± 0.036 for the second.

TATGTACGTT and CTAATGACGT are within error of each other in switch fluorescence ratio: 1.04 ± 0.051 for the first, 1.01 ± 0.015 for the second.

TTGGGACGGA and TCGGTCGCGG are within error of each other in switch fluorescence ratio: 1.01 ± 0.034 for the first, 0.974 ± 0.028 for the second.

Compared with GGCGCGGAGG, ACATTTGCCC is higher in switch fluorescence ratio: 0.992 ± 0.019 for the first, 1.069 ± 0.003 for the second.

CAGATATTAC and ACGGTGAATG are within error of each other in switch fluorescence ratio: 1.06 ± 0.035 for the first, 1 ± 0.038 for the second.

TCGGGGACCG and CGGGTTGAG are within error of each other in switch fluorescence ratio: 0.952 ± 0.052 for the first, 0.9967 ± 0.0066 for the second.

TTTTATAGCA and AAGCTTTATG are within error of each other in switch fluorescence ratio: 1.02 ± 0.059 for the first, 1.003 ± 0.0052 for the second.

CTTAAATTAA and TGGTCCAGCG are within error of each other in switch fluorescence ratio: 0.989 ± 0.051 for the first, 0.998 ± 0.015 for the second.

First: CGCTGACCTT
Second: CATTGATGAA
The switch fluorescence ratio of the first is higher: 1.2 ± 0.037 for the first, 0.988 ± 0.06 for the second.

AAGTATATGT and GGGTTAGGGG are within error of each other in switch fluorescence ratio: 0.998 ± 0.027 for the first, 1.01 ± 0.04 for the second.

TAATTTACTA and CAATACTTG are within error of each other in switch fluorescence ratio: 1.04 ± 0.03 for the first, 1.027 ± 0.0074 for the second.

First: TTTGATGGTT
Second: TTTGCGAGGT
The switch fluorescence ratio of the first is higher: 1.01 ± 0.011 for the first, 0.972 ± 0.026 for the second.

CTGGTATGGA and GTAAATAGTC are within error of each other in switch fluorescence ratio: 0.971 ± 0.065 for the first, 1.03 ± 0.065 for the second.

Going from TGAAATGGTT to ACCAGGGCTT, the switch fluorescence ratio rises from 1.01 ± 0.017 to 1.08 ± 0.021.

Going from TCGGCTCTTG to CCTGGATTGC, the switch fluorescence ratio rises from 1.013 ± 0.0046 to 1.24 ± 0.093.

AGTTTGAGGT and GGTAAAGGGG are within error of each other in switch fluorescence ratio: 0.995 ± 0.023 for the first, 0.991 ± 0.058 for the second.

Compared with TCAGTGAGTA, TATTGCGCTC is higher in switch fluorescence ratio: 0.98 ± 0.019 for the first, 1.09 ± 0.065 for the second.

CGAAGGGGAA and GCAAGTTCAA are within error of each other in switch fluorescence ratio: 1.03 ± 0.099 for the first, 1.01 ± 0.031 for the second.

TGTTGAATTT and GGGATGGGAT are within error of each other in switch fluorescence ratio: 0.958 ± 0.016 for the first, 0.978 ± 0.037 for the second.

CACAACGGGA and GATATCAGGA are within error of each other in switch fluorescence ratio: 0.985 ± 0.029 for the first, 0.989 ± 0.027 for the second.

GGGGGAACCA and AGTTGGGAAC are within error of each other in switch fluorescence ratio: 0.9993 ± 0.0072 for the first, 1.01 ± 0.015 for the second.

TTGCGTAGCA and TGAGGGGCGA are within error of each other in switch fluorescence ratio: 0.977 ± 0.02 for the first, 0.989 ± 0.028 for the second.

AATAGCTCGG and TTAGGCCCCG are within error of each other in switch fluorescence ratio: 0.9867 ± 0.0047 for the first, 1.01 ± 0.04 for the second.

First: GGCGCAGTGG
Second: AAATAACTGA
The switch fluorescence ratio of the first is higher: 1.11 ± 0.041 for the first, 0.994 ± 0.029 for the second.

First: ATCACTGGGT
Second: TATTATGTGG
The switch fluorescence ratio of the first is higher: 0.9976 ± 0.0051 for the first, 0.961 ± 0.01 for the second.

GGGGACAATG and TTAGGCCGGA are within error of each other in switch fluorescence ratio: 1.02 ± 0.044 for the first, 1.04 ± 0.075 for the second.

CCGTATCCCT and AACGAATAAA are within error of each other in switch fluorescence ratio: 1.03 ± 0.043 for the first, 0.994 ± 0.025 for the second.

CGGGGAGGTG and AGTGAGGCGC are within error of each other in switch fluorescence ratio: 1.1 ± 0.087 for the first, 1.01 ± 0.024 for the second.

AAATTAAGGA and ATTGGTATGA are within error of each other in switch fluorescence ratio: 1.01 ± 0.031 for the first, 0.994 ± 0.018 for the second.

ATCAAGGGGG and CTCATTGGCC are within error of each other in switch fluorescence ratio: 0.992 ± 0.034 for the first, 0.983 ± 0.0025 for the second.

Compared with TGTTTTTAAG, ATTTTAACGC is higher in switch fluorescence ratio: 0.99 ± 0.022 for the first, 1.048 ± 0.0063 for the second.

First: ACGTGTTTTG
Second: GATTGATTGT
The switch fluorescence ratio of the first is higher: 1.02 ± 0.018 for the first, 0.9867 ± 0.0061 for the second.

CATTAGGTCT and GTTAAATGTG are within error of each other in switch fluorescence ratio: 0.981 ± 0.038 for the first, 0.972 ± 0.024 for the second.

AAACTAAAAA and CATTTTTGAT are within error of each other in switch fluorescence ratio: 1 ± 0.033 for the first, 1.01 ± 0.02 for the second.

AATTGTTAAC and ATGTATAGAG are within error of each other in switch fluorescence ratio: 0.995 ± 0.016 for the first, 1.03 ± 0.026 for the second.

AACTCAGCCG and TTAATGATTT are within error of each other in switch fluorescence ratio: 1.03 ± 0.013 for the first, 1 ± 0.034 for the second.

CTGCATGTGC and ACTACGTCGA are within error of each other in switch fluorescence ratio: 2.14 ± 0.11 for the first, 2.01 ± 0.21 for the second.

CGTTGACGCG and TTGGCAGTTA are within error of each other in switch fluorescence ratio: 1.02 ± 0.016 for the first, 1.03 ± 0.061 for the second.

TCATATGGTT and ACCCGTTGTT are within error of each other in switch fluorescence ratio: 0.999 ± 0.019 for the first, 1.01 ± 0.039 for the second.

TCGGCACCAA and GGGTGGCGTG are within error of each other in switch fluorescence ratio: 1.05 ± 0.046 for the first, 0.981 ± 0.082 for the second.

Compared with TGGTCTAGGT, GGGTCAGGTG is higher in switch fluorescence ratio: 1.01 ± 0.028 for the first, 3.44 ± 0.48 for the second.

AATAGGTGTT and GCTTTTTGTC are within error of each other in switch fluorescence ratio: 1.07 ± 0.015 for the first, 1.06 ± 0.013 for the second.

TTTATAAAAT and GCGTTCAGGT are within error of each other in switch fluorescence ratio: 0.987 ± 0.039 for the first, 1.01 ± 0.02 for the second.

AGACTTTCTT and TAGGGTATG are within error of each other in switch fluorescence ratio: 1.04 ± 0.02 for the first, 0.983 ± 0.053 for the second.

First: ACATGACGGG
Second: ATGGTATGCT
The switch fluorescence ratio of the first is higher: 1.06 ± 0.015 for the first, 0.992 ± 0.022 for the second.

GGGGGCAAAA and TTAACGGAGA are within error of each other in switch fluorescence ratio: 1.03 ± 0.025 for the first, 1.039 ± 0.0084 for the second.

First: TTTATAATTA
Second: CAAAGCATCT
The switch fluorescence ratio of the first is lower: 0.982 ± 0.013 for the first, 1.09 ± 0.011 for the second.

AGGGGGGTGT and CCGTGTTCTA are the same in switch fluorescence ratio: 1.03 ± 0.028 for the first, 1.03 ± 0.063 for the second.

TGGCGGAGTC and CGGTGGAGCT are within error of each other in switch fluorescence ratio: 1 ± 0.022 for the first, 1.01 ± 0.052 for the second.

GTTTTGTATT and TGGTTCCCAG are within error of each other in switch fluorescence ratio: 1 ± 0.029 for the first, 1.04 ± 0.031 for the second.

First: TACGGGTAAT
Second: GTGGTCTTGA
The switch fluorescence ratio of the first is higher: 1.04 ± 0.019 for the first, 0.981 ± 0.028 for the second.

TTGTCAGGGT and ACCCTCGAGA are within error of each other in switch fluorescence ratio: 0.995 ± 0.026 for the first, 1.06 ± 0.06 for the second.

First: GTTACGGCAA
Second: CCCATTGTAA
The switch fluorescence ratio of the first is higher: 1.27 ± 0.064 for the first, 1.04 ± 0.025 for the second.

First: CGCAAAGAAG
Second: CAGTGGGACT
The switch fluorescence ratio of the first is higher: 1.08 ± 0.02 for the first, 0.974 ± 0.024 for the second.

First: ATGAAATGTT
Second: TAATGATTGC
The switch fluorescence ratio of the first is lower: 1.011 ± 0.0053 for the first, 1.056 ± 0.0026 for the second.

Going from TACATGTTAG to TTCGATGGAA, the switch fluorescence ratio rises from 1.01 ± 0.024 to 1.06 ± 0.0038.

First: AGGTGAGAAT
Second: GTGAGTGTTT
The switch fluorescence ratio of the first is higher: 1.16 ± 0.035 for the first, 0.99 ± 0.011 for the second.

TCACGCAGGG and GGAGAAATCG are within error of each other in switch fluorescence ratio: 1.03 ± 0.023 for the first, 1.06 ± 0.012 for the second.

GGGGGCGGAG and ATGTTGAAGC are within error of each other in switch fluorescence ratio: 0.992 ± 0.024 for the first, 0.9619 ± 0.0078 for the second.

TAGGAAGAGG and TGGGGGTGCC are within error of each other in switch fluorescence ratio: 0.986 ± 0.0068 for the first, 0.9758 ± 0.0037 for the second.

With AATATGGGT the switch fluorescence ratio was 1 ± 0.034.
